From patent publication US20130116417

System: monoclonal antibody 2G12 (anti-HIV gp120)
Test: filter

Sequence	binding (library template (-)-strand listed, assayed (+)-strand has 5-ethynyl-dU in place of T, glycosylated with Man4-azide, initial random library, less than 3% bound) [% bound]	Kd (each U is 5-ethynyl-dU glycosylated with Man4-azide by CuAAAC click (10 sites), T in the primer region unmodified, 20 mM Tris pH 7.5, 100 mM NaCl, 2 mM MgSO4, 0.02% Tween-20, room temperature, 3 h, after 7 SELMA rounds) [nM]
CTGTTGTTCCGCAGTCACCTTNNNNNNNNNNNNNNNNNNNNNNNNNCCCGTACCCGTATTTGGTGGCAAGGATGACAAGGATTTTATATTTTATATTTTTATTTTATTATCGGGTACGGG [initial random glyco-DNA library]	< 3	–
CACCAAATACGGGTACGGGCCCGGCUGUUUCAGAUGCUGUAAGUAAGGUGACUGCGGAACAACAG [Man4-16 (clone 16 glyco-DNA)]	–	220
